Consider one substance from publication PMC4597091.

The target in the assay is PepT2^ECD-S427C, labelled for MST (Rattus norvegicus) (UniProt Q63424). In words: MST; 1.5 μM labelled ECD (S437C or S427C, blue maleimide) with 0.03–1,000 μM ligand; 22°C; 25 mM MES pH 6.5, 100 mM NaCl.

Broadly, the Kd is a measure of binding affinity in units of concentration. A higher Kd goes with a looser complex. In turn, trypsin (intestinal protease) (enzyme) returned a dissociation constant (Kd) of 6 µM.
